The results in this text go back to US20260202410A1 (NORDIC BIOSCIENCE A S, published 2026).

B1: standard peptide QRAFNKGPDP (PRO-C9 target sequence, C-terminus of type IX collagen alpha-1 chain) (peptide)
peptide: QRAFNKGPDP
notes: Synthetic peptide from Genscript with a free C-terminus; also called selection peptide
B2: monoclonal antibody clone NBH313 #46 9H11-1D9-2B6 (antibody, V domains shown)
VH: EVQLVESGGGLVQPKGSLKLSCAASGFTFNIYTMNWVRQAPGKGLEWVARIRSKSENYATYYADSVKDRFTISRDDSQSILYLQMNNLKTEDTAIYYCVRQGIYYDYYGAMDYWGQGTSVTVSS
VL: NIMMTQSPSSLAVSAGEKATMSCKSSQSLLYSSNQMNYLAWYQQKPGQSPKLLIYWASTRESDVPDRFTGSGSGTDFTLTISSVQTEDLAVYYCHQYFSSRTFGGGTKLEIKR
notes: Mouse (Balb/C) hybridoma monoclonal antibody; also called PRO-C9 antibody; the mAb

Experiment [1] has as its target B2. Nature of the experiment: competitive CLIA: free standard peptide against coated Biotin-… for HRP-labelled antibody. The protocol: Next, 20 μL/well of standard peptide (100 ng/mL) and samples were added to the appropriate wells, followed by the addition of 100 μL/well of HRP-labelled antibody diluted in assay buffer to the concertation of 100 ng/mL and incubated for 20 h at 4° C. with constant shaking (300 rpm) in darkness. After each incubation step, wells were washed with standard washing buffer (20 mM Tris, 50 mM NaCl, pH 7.2). The chemiluminescence substrate (Roche, BM Chemiluminescence ELISA substrate (POD), Basel, Switzerland) working solutions were mixed 15 min before use and 100 μL/well were added to plate and incubated for 3 min at 20° C. with constant shaking (300 rpm) in darkness. The relative light units were measured at all wavelengths within 5 min on a microplate luminometer reader (SpectraMax M5, Molecular Devices, CA, USA).
Accuracy of the assay was measured in healthy human serum samples spiked with standard peptide and a serum sample with a known high PRO-C9 concentration and calculated as the percentage recovery of the measured value and the expected concentration of the peptide or the serum sample with high PRO-C9 plus the concentration of the analyte in serum. […] Recovery percentage was calculated with the normal serum sample as reference. […] The interference was calculated as the percentage recovery of the analyte in non-spiked serum. […]

The target of experiment [2] is T1, truncated peptide QRAFNKGPD
T1 construct: also called truncated selection peptide
T1 peptide: QRAFNKGPD
The experiment is described as follows: competitive CLIA, signal inhibition by two-fold diluted peptide. As to the method: (§1) The development of the competitive chemiluminescence immunoassay (CLIA) included several preliminary optimizing experiments where reagents, concentrations, incubation-time and -temperature were analysed by several tests. The PRO-C9 competitive ELISA procedure was as follows: A 96-well streptavidin-coated white microplate (Greiner Bio-One, Kremsminster, Austria) was coated with 5 ng/mL biotinylated synthetic peptide (Biotin-[…] SEQ ID No. 18) dissolved in assay buffer (10 mM phosphate buffered saline (PBS), 1% bovine serum albumin, 0.1% Tween-20, 0.36% Bronidox, 4 g/L NaCl, adjusted to pH 7.4 at 20° C.) and incubated for 30 min at 20° C. with constant shaking (300 rpm) in darkness.
(§2) Next, 20 μL/well of standard peptide (100 ng/mL) and samples were added to the appropriate wells, followed by the addition of 100 μL/well of HRP-labelled antibody diluted in assay buffer to the concertation of 100 ng/mL and incubated for 20 h at 4° C. with constant shaking (300 rpm) in darkness. After each incubation step, wells were washed with standard washing buffer (20 mM Tris, 50 mM NaCl, pH 7.2). […] The relative light units were measured at all wavelengths within 5 min on a microplate luminometer reader (SpectraMax M5, Molecular Devices, CA, USA).
(§3) Two-fold dilutions of four human serum samples were used to assess linearity. Linearity was calculated as a percentage of recovery of the undiluted sample. […]

The target in experiment [3] is T2, elongated peptide QRAFNKGPDPG
T2 construct: also called elongated selection peptide
T2 peptide: QRAFNKGPDPG
Described as above. The protocol: as §1, §2, §3

For experiment [4], the target named is T3, non-sense coating and standard peptide DQAAGGLRQH
T3 construct: also called non-sense peptide; non-sense standard peptide
T3 peptide: DQAAGGLRQH
Nature of the experiment: competitive CLIA, non-sense peptide tested as free standard and as coater. As to the method:
as §1, §2, §3

For experiment [5], the target named is B1. Nature of the experiment: ELISA screening of hybridoma clones. As to the method:
An indirect ELISA performed on streptavidin-coated plates was used for the screening of supernatant reactivity. Biotin-[…] was used as screening peptide, while the standard peptide […] was used to further test the specificity of the clones. Supernatant was collected from the hybridoma cells and purified using HiTrap affinity columns (GEHealthcare Life Science, Little Chalfront, Buckinghamshire, UK) according to manufacturer instructions and antibody isotype was determined using Rapid ELISA Mouse monoclonal antibody Isotyping Kit (Invitrogen, Carlsbad, CA, USA) following the manufacturer's protocol.
On the technique in general: ELISA stands for enzyme-linked immunosorbent assay.

By IC50 is commonly meant the midpoint of a concentration-inhibition curve. A high value points to weaker potency in that assay.

Turning to B1, the IC50 in experiment [1] was 3.62 ng/mL.

For B2, the binding result is “no binding” in experiment [2], “no binding” in experiment [3], “no binding” in experiment [4] and “binds” in experiment [5].
